Experimental data: patent US20240343811A1 (SHANDONG SIMCERE BIOPHARMACUTICAL, published 2024)

T1: human CD16b (NA2), full length, on FlpinCHO cells (human, UniProt O75015 17-200)
T1 construct: also called FlpinCHO-human CD16b (NA2)
T1 chain: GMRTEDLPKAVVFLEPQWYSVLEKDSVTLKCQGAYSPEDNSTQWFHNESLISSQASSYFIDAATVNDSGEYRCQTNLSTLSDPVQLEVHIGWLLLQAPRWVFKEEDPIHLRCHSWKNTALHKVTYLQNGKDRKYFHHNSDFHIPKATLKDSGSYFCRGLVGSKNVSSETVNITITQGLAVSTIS

T2: Human CD16b (NA1)-his (human)
T2 construct: entry holds ECD, linker, His tag and AVI tag
T2 chain: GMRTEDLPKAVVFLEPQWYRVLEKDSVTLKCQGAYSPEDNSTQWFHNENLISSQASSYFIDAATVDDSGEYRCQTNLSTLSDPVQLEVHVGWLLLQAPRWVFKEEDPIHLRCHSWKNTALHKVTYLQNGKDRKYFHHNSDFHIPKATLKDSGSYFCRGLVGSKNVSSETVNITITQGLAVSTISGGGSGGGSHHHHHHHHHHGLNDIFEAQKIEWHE


Assays:
[1] = biological target: T3, CD16 on primary human NK cells (human, UniProt P08637 17-254); experiment: FACS on human NK cells, biotinylated antibody, +10 mg/mL human immunoglobulin
T3 construct: whole, on cells; also called resting NK cells

[2] = biological target: T4, human CD16a (158F), full length, on FlpinCHO cells (human, UniProt P08637 17-254); experiment: FACS, biotinylated antibody
Target sequence in this assay (P08637 17-254 limits assumed): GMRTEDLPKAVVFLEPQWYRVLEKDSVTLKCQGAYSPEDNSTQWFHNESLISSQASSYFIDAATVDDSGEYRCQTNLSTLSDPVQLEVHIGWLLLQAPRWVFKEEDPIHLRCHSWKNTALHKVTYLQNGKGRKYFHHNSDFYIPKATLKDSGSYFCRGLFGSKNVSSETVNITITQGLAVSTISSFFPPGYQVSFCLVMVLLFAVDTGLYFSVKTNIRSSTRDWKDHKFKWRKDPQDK

[3] = biological target: T5, human CD16a (158V), full length, on cells (human, UniProt P08637 17-254); experiment: FACS, biotinylated antibody
T5 construct: also used as target for the bought Jurkat-NFAT reporter line stably expressing human CD16a (158V); also called FlpinCHO-human CD16a (158V); FlpinCHO-CD16a (158V)
Target sequence in this assay (P08637 17-254 F176V limits assumed): as the sequence (P08637 17-254 limits assumed) above, with F160V counted along it

[4] = biological target: T5, human CD16a (158V), full length, on …; experiment: cell-based or functional assay
Target sequence in this assay (P08637 17-254 F176V limits assumed): as the sequence (P08637 17-254 limits assumed) above, with F160V counted along it

[5] = biological target: T1, human CD16b (NA2), full length, on …; experiment: FACS on FlpinCHO cells
How it was run: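 EC50 values come from fitted MFI curves measured by FACS. Antibody dilutions were bound for 1 hour on ice to CD16b-transfected FlpinCHO cells suspended in PBS with 2% BSA blocking solution.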

[6] = biological target: T4, human CD16a (158F), full length, on …; experiment: FACS on FlpinCHO cells
How it was run: (§1)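 EC50 comes from fitted concentration–MFI curves. Antibody dilutions were bound to the cells for 1 hour on ice in PBS blocking buffer with 2% BSA, followed by washing and flow cytometric readout.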

[7] = biological target: T5, human CD16a (158V), full length, on …; experiment: FACS on FlpinCHO cells
How it was run: as §1

Human CD16a (158F)-his = biological target: T6, Human CD16a (158F)-his (human); experiment: SPR (Biacore), antibody captured on Protein A
T6 construct: entry holds ECD, AVI tag, linker and His tag
How it was run: (§2)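 Protein A–captured antibody was probed with CD16-his ECD in HBS-EP+ at 25 °C: five 2-fold dilutions from 200 nM, 240 s at 30 μL/min, dissociation up to 600 s. Glycine pH 1.5 regenerated the chip. Apparent KD came from a double-referenced 1:1 Langmuir fit.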

Human CD16b (NA1)-his = biological target: T2, Human CD16b (NA1)-his; experiment: SPR (Biacore), antibody captured on Protein A
How it was run: as §2

Human CD16a (158V)-his = biological target: T7, Human CD16a (158V)-his (human); experiment: SPR (Biacore), antibody captured on Protein A
T7 construct: entry holds ECD, AVI tag, linker and His tag
How it was run: as §2

Binder | EC50 [1] | Maximum mean fluorescence intensity [1] | EC50 [2] | Maximum mean fluorescence intensity [2] | EC50 [3] | Maximum mean fluorescence intensity [3] | EC50, activation activity for Jurkat cell [4] | Maximum fluorescence value [4] | Maximum mean fluorescence intensity [5] | EC50 [6] | Maximum mean fluorescence intensity [6] | EC50 [7] | Maximum mean fluorescence intensity [7] | Kd (Human CD16a (158F)-his) | koff (Human CD16a (158F)-his) | kon (Human CD16a (158F)-his) | Kd (Human CD16b (NA1)-his) | koff (Human CD16b (NA1)-his) | kon (Human CD16b (NA1)-his) | Kd (Human CD16a (158V)-his) | further results
VHH06 VHH-Fc antibody (Fc fusion) EVQLVESGGGLVQAGGSLRLSCVASGSTWTTYAVRWYRQAPGKQREWVAFISVDGSTNYPDSVKGRFIVSRDNAKNTVYLQMNSLKPEDTADYICRVGGQYWGQGTQVTVSSEPKSSDKTHTCPPCPAPEFEGGPSVFLFPPKPKDTLMISRTPEVTCVVVAVSHEDPEVKFNWYVDGVEVHNAKTKPREEQYNSTYRVVSVLTVLHQDWLNGKEYKCKVSNKALPAPIEKTISKAKGQPREPQVYTLPPSREEMTKNQVSLTCLVKGFYPSDIAVEWESNGQPENNYKTTPPVLDSDGSFFLYSKLTVDKSRWQQGNVFSCSVMHEALHNHYTQKSLSLSPGK | 3.9 nM | 80000 | 0.39 nM | 9740 | 0.79 nM | 13300 | 0.04 nM | 169000 | 1930 | 0.58 nM | 7070 | 0.66 nM | 8110 | 5.84 nM | 0.000374 s⁻¹ | 64000 M⁻¹ s⁻¹ | 8.63 nM | 0.00113 s⁻¹ | 130000 M⁻¹ s⁻¹ | 1.96 nM | binding result [5]: no binding (tested: 100 nM); koff (Human CD16a (158V)-his): 0.000213 s⁻¹; kon (Human CD16a (158V)-his): 109000 M⁻¹ s⁻¹
VHH11 VHH-Fc antibody (Fc fusion) EVQVVESGGGLAQAGGSLRLSCAVSGITFSSYAMGWYRQDPGKQRELVAAINRFGLTNYADSVKGRFTISRDNAKNTVYLQMTSLKPEDTAVYYCNTGGVYSHPNYYTGTYWGQGTQVTVSSEPKSSDKTHTCPPCPAPEFEGGPSVFLFPPKPKDTLMISRTPEVTCVVVAVSHEDPEVKFNWYVDGVEVHNAKTKPREEQYNSTYRVVSVLTVLHQDWLNGKEYKCKVSNKALPAPIEKTISKAKGQPREPQVYTLPPSREEMTKNQVSLTCLVKGFYPSDIAVEWESNGQPENNYKTTPPVLDSDGSFFLYSKLTVDKSRWQQGNVFSCSVMHEALHNHYTQKSLSLSPGK | 2.31 nM | 62300 | 0.2 nM | 7240 | 0.36 nM | 10700 | 0.03 nM | 166000 | 56900 | 0.28 nM | 5670 | 0.33 nM | 6240 | 42.9 nM | 0.0235 s⁻¹ | 548000 M⁻¹ s⁻¹ | 6010 nM | 0.259 s⁻¹ | 43100 M⁻¹ s⁻¹ | 32 nM | EC50 [5]: 1.43 nM; koff (Human CD16a (158V)-his): 0.0491 s⁻¹; kon (Human CD16a (158V)-his): 1.53e+06 M⁻¹ s⁻¹
VHH12 VHH-Fc antibody (Fc fusion) QVQLVESGGGLVQAGGSLRLSCAASGITFSSYAMGWYRQAPGKQRELVAAINRFGLTNYADFVKGRFTISRVNAKNTVYLQMTSLKPEDTAVYYCNTGGVYSHPDYYTGTYWGQGTQVTVSSEPKSSDKTHTCPPCPAPEFEGGPSVFLFPPKPKDTLMISRTPEVTCVVVAVSHEDPEVKFNWYVDGVEVHNAKTKPREEQYNSTYRVVSVLTVLHQDWLNGKEYKCKVSNKALPAPIEKTISKAKGQPREPQVYTLPPSREEMTKNQVSLTCLVKGFYPSDIAVEWESNGQPENNYKTTPPVLDSDGSFFLYSKLTVDKSRWQQGNVFSCSVMHEALHNHYTQKSLSLSPGK | 1.82 nM | 48900 | 0.12 nM | 5410 | 0.16 nM | 7950 | 0.02 nM | 165000 | 79100 | 0.16 nM | 6090 | 0.21 nM | 6680 | 13.3 nM | 0.0117 s⁻¹ | 878000 M⁻¹ s⁻¹ | 1500 nM | 0.154 s⁻¹ | 103000 M⁻¹ s⁻¹ | 10.8 nM | EC50 [5]: 0.96 nM; koff (Human CD16a (158V)-his): 0.0201 s⁻¹; kon (Human CD16a (158V)-his): 1.86e+06 M⁻¹ s⁻¹
